Read-outs that look alike come from different tables or passages of the source.
Assays:
[1] = target: T1, recombinant human IL-8, (ser-IL-8)72 (human, UniProt P10145); experiment: inhibition of 125I-IL-8 binding to human neutrophils
[2] = target: T1, recombinant human IL-8, (ser-IL-8)72; experiment: 125I-IL-8 neutrophil competition; against F(ab)-1
[3] = target: IL-8 binding to IL-8 receptors on human neutrophils (Homo sapiens, UniProt P10145); experiment: inhibition of 125I-IL-8 binding to human neutrophils (competition binding assay); settings: for IC50: humanized 6G425 variants, Table 4, read-out: IC50 Mean (concentration of variant necessary to inhibit binding of iodinated IL8 to human neutrophils)
IL-8 = IL-8 (Homo sapiens, UniProt P10145); experiment: human (wild type) IL-8 mediated neutrophil chemotaxis; type: cell-based
Method: Human neutrophils were isolated, counted and resuspended at 5×10^6 cells/ml in Hank's balanced salt solution (abbreviated HBSS; without calcium and magnesium) with 0.1% bovine serum albumin. The neutrophils were labeled by adding calcein AM (Molecular Probe, Eugene, Oreg.) at a final concentration of 2.0 μM. Following a 30 minute incubation at 37° C., cells were washed twice with HBSS-BSA and resuspended at 5×10^6 cells/ml.
Chemotaxis experiments were carried out in a Neuro Probe (Cabin John, Md.) 96-well chamber, model MBB96. […] 100 μl of the calcein AM-labeled neutrophils were added to the upper chambers and allowed to migrate through a 5 micrometer porosity PVP free polycarbonate framed filter (Neuro Probe Inc.) toward the bottom chamber sample. The chemotaxis apparatus was then incubated for 40 to 60 minutes at 37° C. with 5% CO2. At the end of the incubation, neutrophils remaining in the upper chamber were aspirated and upper chambers were washed three times with PBS. Then the polycarbonate filter was removed, non-migrating cells were wiped off with a squeegee wetted with PBS, and the filter was air dried for 15 minutes.
The relative number of neutrophils migrating through the filter (Neutrophil migration index) was determined by measuring fluorescence intensity of the filter and the fluorescence intensity of the contents of the lower chamber and adding the two values together. Fluorescence intensity was measured with a CytoFluor 2300 fluorescent plate reader (Millipore Corp. Bedford, Mass.) configured to read a Corning 96-well plate using the 485-20 nm excitation filter and a 530-25 emission filter, with the sensitivity set at 3.
The affinity matured Fab variant, 6G4V11N35E, was tested for its ability to inhibit IL-8 mediated neutrophil chemotaxis as described in Section (B)(2) above. The reuseable 96-well chemotaxis chamber described in Section (B)(2) was replaced with endotoxin-free disposable chemotaxis chambers containing 5-micron PVP-free polycarbonate filters (ChemoTx101-5, Neuro Probe, Inc. Cabin John, Md.).

[4] = target: T1, recombinant human IL-8, (ser-IL-8)72; experiment: competition phage ELISA (K64C IL-8 coated, free IL-8)
Description: The first step of the assay requires that the concentrations of the phage carrying the wild type and mutated antibodies be normalized, allowing a comparison of the relative affinities of each antibody.

rhesus IL-8 = rhesus IL-8 (rhesus, UniProt P67813); experiment: cell-based or functional assay

B1: humanized 6G425 F(ab)-2 (Fab, V domains shown)
VH: EVQLVESGGGLVQPGGSLRLSCAASGYSFSSHYMHWVRQAPGKGLEWVGYIDPSNGETTYNQKFKGRATISRDNSKNTLYLQMNSLRAEDTAVYYCAARGDYRYNGDWFFDVWGQGT
VL: DIQMTQSPSSLSASVGDRVTITCRSSQSLVHGIGNTYLHWYQQKPGKAPKLLIYYKVSNRFSGVPSRFSGSGSGTDFTLTISSLQPEDFATYYCSQSTHVPLTFGQGTKVEIKR
For B1, the IC50 [1] was 0.106 µM and the “fold decrease in IL-8 binding” value [2] was < 2 fold.

B2: humanized 6G425 F(ab)-3 (Fab, V domains shown)
VH: EVQLVESGGGLVQPGGSLRLSCAASGYSFSSHYMHWVRQAPGKGLEWVGYIDPSNGETTYNQKFKGRFTISVDNSKNTLYLQMNSLRAEDTAVYYCAARGDYRYNGDWFFDVWGQGT
VL: DIQMTQSPSSLSASVGDRVTITCRSSQSLVHGIGNTYLHWYQQKPGKAPKLLIYYKVSNRFSGVPSRFSGSGSGTDFTLTISSLQPEDFATYYCSQSTHVPLTFGQGTKVEIKR
With B2 the IC50 [1] was 0.0798 µM and the “fold decrease in IL-8 binding” value [2] was < 2 fold.

B3: F(ab)-6: humanized variant, F(ab)-1 with IleH69Leu and LeuH78Ala (antibody, V domains shown)
VL: DIQMTQSPSSLSASVGDRVTITCRSSQSLVHGIGNTYLHWYQQKPGKAPKLLIYYKVSNRFSGVPSRFSGSGSGTDFTLTISSLQPEDFATYYCSQSTHVPLTFGQGTKVEIKR
VH: EVQLVESGGGLVQPGGSLRLSCAASGYSFSSHYMHWVRQAPGKGLEWVGYIDPSNGETTYNQKFKGRFTLSRDNSKNTAYLQMNSLRAEDTAVYYCAARGDYRYNGDWFFDVWGQGT
With B3 the “increase in affinity for IL-8” value ([3]; compared to F(ab)-1) was “approximately 2 fold” and the IC50 [3] was 0.0346 µM.

B4: F(ab)-7: humanized variant, F(ab)-6 with LeuH80Val (antibody, V domains shown)
VL: DIQMTQSPSSLSASVGDRVTITCRSSQSLVHGIGNTYLHWYQQKPGKAPKLLIYYKVSNRFSGVPSRFSGSGSGTDFTLTISSLQPEDFATYYCSQSTHVPLTFGQGTKVEIKR
VH: EVQLVESGGGLVQPGGSLRLSCAASGYSFSSHYMHWVRQAPGKGLEWVGYIDPSNGETTYNQKFKGRFTLSRDNSKNTAYVQMNSLRAEDTAVYYCAARGDYRYNGDWFFDVWGQGT
In the case of B4, the IC50 [3] is reported as 0.0384 µM.

B5: F(ab)-8: humanized variant, F(ab)-6 with ArgH38Lys (protein)
light: DIQMTQSPSSLSASVGDRVTITCRSSQSLVHGIGNTYLHWYQQKPGKAPKLLIYKVSNRFSGVPSRFSGSGSGTDFTLTISSLQPEDFATYYCSQSTHVPLTFGQGTKVEIKRTVAAPSVFIFPPSDEQLKSGTASVVCLLNNFYPREAKVQWKVDNALQSGNSQESVTEQDSKDSTYSLSSTLTLSKADYEKHKVYACEVTHQGLSSPVTKSFNRGEC
heavy: EVQLVESGGGLVQPGGSLRLSCAASGYSFSSHYMHWVKQAPGKGLEWVGYIDPSNGETTYNQKFKGRFTLSRDNSKNTAYLQMNSLRAEDTAVYYCARGDYRYNGDWFFDVWGQGTLVTVSSASTKGPSVFPLAPSSKSTSGGTAALGCLVKDYFPEPVTVSWNSGALTSGVHTFPAVLQSSGLYSLSSVVTVPSSSLGTQTYICNVNHKPSNTKVDKKVEPKSCDKTHT
With B5 the IC50 (IL-8; read-out: IC50, human wild type IL-8 mediated neutrophil chemotaxis) was 0.012 µM.

B6: 6G4V11N35E Fab: affinity matured variant of humanized 6G4V11 Fab with Glu at position 35 of CDR-L1 (protein)
light: DIQMTQSPSSLSASVGDRVTITCRSSQSLVHGIGETYLHWYQQKPGKAPKLLIYKVSNRFSGVPSRFSGSGSGTDFTLTISSLQPEDFATYYCSQSTHVPLTFGQGTKVEIKRTVAAPSVFIFPPSDEQLKSGTASVVCLLNNFYPREAKVQWKVDNALQSGNSQESVTEQDSKDSTYSLSSTLTLSKADYEKHKVYACEVTHQGLSSPVTKSFNRGEC
heavy: EVQLVQSGGGLVQPGGSLRLSCAASGYSFSSHYMHWVRQAPGKGLEWVGYIDPSNGETTYNQKFKGRFTLSRDNSKNTAYLQMNSLRAEDTAVYYCARGDYRYNGDWFFDVWGQGTLVTVSSASTKGPSVFPLAPSSKSTSGGTAALGCLVKDYFPEPVTVSWNSGALTSGVHTFPAVLQSSGLYSLSSVVTVPSSSLGTQTYICNVNHKPSNTKVDKKVEPKSCDKTHT
With B6 the IC50 (IL-8; 2 nM IL-8, disposable chemotaxis chambers, read-out: IC50, human IL-8 mediated neutrophil chemotaxis) was ~0.0012 µM and the “inhibition of chemotaxis at 3.7 nM-33 nM” value (IL-8; 2 nM stimulus of rabbit or human IL-8, compared with buffer control) was “could completely inhibit this response”.

B7: 5.12.14 Fab: recombinant human-murine chimeric Fab of 5.12.14 (protein)
light: DIVMTQSQKFMSTSVGDRVSVTCKASQNVGTNVAWYQQKPGQSPKALIYSSSYRYSGVPDRFTGSGSGTDFTLTISHVQSEDLADYFCQQYNIYPLTFGPGTKLELRRAVAAPSVFIFPPSDEQLKSGTASVVCLLNNFYPREAKVQWKVDNALQSGNSQESVTEQDSKDSTYSLSSTLTLSKADYEKHKVYACEVTHQGLSSPVTKSFNRGEC
heavy: EVQLVESGGGLVPPGGSLKLSCAASGFIFSSYGMSWVRQTPGKSLELVATINNNGDSTYYPDSVKGRFTISRDNAKNTLYLQMSSLKSEDTAMFYCARALISSATWFGYWGQGTLVTVSAASTKGPSVFPLAPSSKSTSGGTAALGCLVKDYFPEPVTVSWNSGALTSGVHTFPAVLQSSGLYSLSSVVTVPSSSLGTQTYICNVNHKPSNTKVDKKVEPKSCDKTHT
With B7 the “inhibition of human IL-8 mediated neutrophil chemotaxis / migration” value (IL-8) was “demonstrates the inhibition of human IL-8 mediated neutrophil chemotaxis”.

B8: 6G4.2.5 Fab: recombinant human-murine chimeric Fab of 6G4.2.5 (protein)
light: DIVMTQTPLSLPVSLGDQASISCRSSQSLVHGIGNTYLHWYLQKPGQSPKLLIYKVSNRFSGVPDRFSGSGSGTDFTLRISRVEAEDLGLYFCSQSTHVPLTFGAGTKLELKRAVAAPTVFIFPPSSEQLKSGTASVVCLLNNFYPREAKVQWKVDNALQSGNSQESVTEQDSKDSTYSLSSTLTLSKADYEKHKVYACEVTHQGLSSPVTKSFNRGEC
heavy: EIQLQQSGPELMKPGASVKISCKASGYSFSSHYMHWVKQSHGKSLEWIGYIDPSNGETTYNQKFKGKATLTVDTSSSTANVHLSSLTSDDSAVYFCARGDYRYNGDWFFDVWGAGTTVTVSSASTKGPSVFPLAPSSKSTSGGTAALGCLVKDYFPEPVTVSWNSGALTSGVHTFPAVLQSSGLYSLSSVVTVPSSSLGTQTYICNVNHKPSNTKVDKKVEPKSCDKTHT
With B8 the “inhibition of human IL-8 mediated neutrophil chemotaxis / migration” value (IL-8) was “demonstrates the inhibition of human IL-8 mediated neutrophil chemotaxis”.

B9: h6G4V11 alanine mutant Y37A (CDR-L1) (Fab, V domains shown)
VH: EVQLVQSGGGLVQPGGSLRLSCAASGYSFSSHYMHWVRQAPGKGLEWVGYIDPSNGETTYNQKFKGRFTLSRDNSKNTAYLQMNSLRAEDTAVYYCARGDYRYNGDWFFDVWGQGTLVTVSS
VL: DIQMTQSPSSLSASVGDRVTITCRSSQSLVHGIGNTALHWYQQKPGKAPKLLIYKVSNRFSGVPSRFSGSGSGTDFTLTISSLQPEDFATYYCSQSTHVPLTFGQGTKVEIKR
B9: no binding [4].

B10: h6G4V11 alanine mutant H98A (CDR-L3) (Fab, V domains shown)
VH: EVQLVQSGGGLVQPGGSLRLSCAASGYSFSSHYMHWVRQAPGKGLEWVGYIDPSNGETTYNQKFKGRFTLSRDNSKNTAYLQMNSLRAEDTAVYYCARGDYRYNGDWFFDVWGQGTLVTVSS
VL: DIQMTQSPSSLSASVGDRVTITCRSSQSLVHGIGNTYLHWYQQKPGKAPKLLIYKVSNRFSGVPSRFSGSGSGTDFTLTISSLQPEDFATYYCSQSTAVPLTFGQGTKVEIKR
B10 gave an IC50 [4] of 0.008 µM.

B11: humanized 6G425 F(ab)-8 (Fab, V domains shown)
VH: EVQLVESGGGLVQPGGSLRLSCAASGYSFSSHYMHWVKQAPGKGLEWVGYIDPSNGETTYNQKFKGRFTLSRDNSKNTAYLQMNSLRAEDTAVYYCARGDYRYNGDWFFDVWGQGTLVTVSS
VL: DIQMTQSPSSLSASVGDRVTITCRSSQSLVHGIGNTYLHWYQQKPGKAPKLLIYKVSNRFSGVPSRFSGSGSGTDFTLTISSLQPEDFATYYCSQSTHVPLTFGQGTKVEIKR
In the case of B11, the “IC50, IL-8 mediated neutrophil chemotaxis” value (rhesus IL-8) is reported as 0.01 µM.

From patent US6025158A, “Nucleic acids encoding humanized anti-IL-8 monoclonal antibodies” (Genentech, Inc., dated 2000)
